Assay results published in PMC12085566.

Target: BG505 SOSIP.664 Env trimer (HIV-1 (isolate BG505))
Experiment: cryo-EM structure

## 4-domain CD4 (receptor)
  stoichiometry N (molecules per Env): 3
